Test results reported in patent EP4722249A1 (AIMED BIO INC., dated 2026).

What was measured:
[1] = biological target: T1, human CD200R1 on cells (HH, Jurkat-CD200R1, U937-CD200R1) (human) (UniProt Q8TD46); assay: flow cytometry, HH cells
T1 sequence (looked up): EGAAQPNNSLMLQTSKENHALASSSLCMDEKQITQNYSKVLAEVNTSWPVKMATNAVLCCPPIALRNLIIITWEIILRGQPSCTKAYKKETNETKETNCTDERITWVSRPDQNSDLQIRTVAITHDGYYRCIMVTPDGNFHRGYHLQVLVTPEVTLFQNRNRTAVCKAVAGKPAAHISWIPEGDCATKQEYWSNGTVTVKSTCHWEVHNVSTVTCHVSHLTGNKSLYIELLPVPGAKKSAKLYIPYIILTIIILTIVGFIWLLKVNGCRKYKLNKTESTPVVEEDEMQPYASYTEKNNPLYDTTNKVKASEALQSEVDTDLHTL

[2] = biological target: T1, human CD200R1 on cells (HH, Jurkat-CD200R1, U937-CD200R1) (human); assay: flow cytometry, Jurkat-CD200R cells
[3] = biological target: T1, human CD200R1 on cells (HH, Jurkat-CD200R1, U937-CD200R1) (human); assay: flow cytometry, U937-CD200R cells
[4] = biological target: T1, human CD200R1 on cells (HH, Jurkat-CD200R1, U937-CD200R1) (human); assay: cell-based or functional assay
[5] = biological target: T2, human CD200R1 recombinant protein (human) (UniProt Q8TD46); assay: ELISA of hybridoma clones on human CD200R1
T2 sequence (looked up): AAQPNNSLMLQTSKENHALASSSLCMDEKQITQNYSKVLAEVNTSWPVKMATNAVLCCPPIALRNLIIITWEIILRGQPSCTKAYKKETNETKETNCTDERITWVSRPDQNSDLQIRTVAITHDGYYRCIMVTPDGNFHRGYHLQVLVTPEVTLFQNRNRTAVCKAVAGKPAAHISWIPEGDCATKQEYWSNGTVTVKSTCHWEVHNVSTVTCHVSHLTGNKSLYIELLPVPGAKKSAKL

[6] = biological target: T3, mouse CD200R1 protein (R&D systems, 2554-CD) (mouse, UniProt Q9ES57 26-238); assay: ELISA on coated mouse CD200R1 protein
T3 construct: the same entry is used
T3 sequence (looked up): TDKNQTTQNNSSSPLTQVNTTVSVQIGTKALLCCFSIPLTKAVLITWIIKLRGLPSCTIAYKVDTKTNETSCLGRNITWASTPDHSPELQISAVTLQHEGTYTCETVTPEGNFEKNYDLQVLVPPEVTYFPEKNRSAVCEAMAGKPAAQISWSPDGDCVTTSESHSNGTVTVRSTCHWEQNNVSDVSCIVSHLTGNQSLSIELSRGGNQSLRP

Molecule “LY3454738 (US 2020/0087395, I-4P, Eli Lilly) (antibody)” has an EC50 [1] of 82.7 nM, an EC50 [2] of 43.5 nM and an EC50 [3] of 152 nM. For the same molecule, the EC50 (nM), degree of signal transduction by the Dok2 protein, Jurkat-CD200R1 reporter cells [4] was greater than 10000 nM, the IC50 (nM) of IL-6 suppression, LPS-treated U937-CD200R1 cells [4] was 1.72 nM and the IC50 (nM) of TNF-α suppression, LPS-treated U937-CD200R1 cells [4] was 6.03 nM. It also gave an IL-6 (pg/ml), LPS-treated U937-CD200R1 cells, log [Ab] (M) -7 [4] of 523 pg/ml, an IL-6 (pg/ml), LPS-treated U937-CD200R1 cells, log [Ab] (M) -8 [4] of 1330 pg/ml and an IL-6 (pg/ml), LPS-treated U937-CD200R1 cells, log [Ab] (M) -9 [4] of 2670 pg/ml. For the same molecule, the IL-6 (pg/ml), LPS-treated U937-CD200R1 cells, log [Ab] (M) -10 [4] was 3380 pg/ml, the IL-6 (pg/ml), LPS-treated U937-CD200R1 cells, log [Ab] (M) -11 [4] was 3550 pg/ml and the IL-6 (pg/ml), LPS-treated U937-CD200R1 cells, log [Ab] (M) -12 [4] was 4530 pg/ml. For the same molecule, the RLU (a.u.), phospho-Dok2 luminescence, Jurkat-CD200R1 reporter cells, antibody dose 0.05 nM [4] was 9260 a.u, the RLU (a.u.), phospho-Dok2 luminescence, Jurkat-CD200R1 reporter cells, antibody dose 0.10 nM [4] was 8400 a.u and the RLU (a.u.), phospho-Dok2 luminescence, Jurkat-CD200R1 reporter cells, antibody dose 0.20 nM [4] was 8000 a.u. For the same molecule, the RLU (a.u.), phospho-Dok2 luminescence, Jurkat-CD200R1 reporter cells, antibody dose 0.39 nM [4] was 8960 a.u, the RLU (a.u.), phospho-Dok2 luminescence, Jurkat-CD200R1 reporter cells, antibody dose 0.78 nM [4] was 8900 a.u and the RLU (a.u.), phospho-Dok2 luminescence, Jurkat-CD200R1 reporter cells, antibody dose 1.56 nM [4] was 9100 a.u. The RLU (a.u.), phospho-Dok2 luminescence, Jurkat-CD200R1 reporter cells, antibody dose 3.13 nM [4] was 9470 a.u, the RLU (a.u.), phospho-Dok2 luminescence, Jurkat-CD200R1 reporter cells, antibody dose 6.25 nM [4] was 8930 a.u and the RLU (a.u.), phospho-Dok2 luminescence, Jurkat-CD200R1 reporter cells, antibody dose 12.5 nM [4] was 13000 a.u. The RLU (a.u.), phospho-Dok2 luminescence, Jurkat-CD200R1 reporter cells, antibody dose 25 nM [4] was 22700 a.u, the RLU (a.u.), phospho-Dok2 luminescence, Jurkat-CD200R1 reporter cells, antibody dose 50 nM [4] was 25600 a.u and the TNF-α (pg/ml), LPS-treated U937-CD200R1 cells, log [Ab] (M) -7 [4] was 472 pg/ml. For the same molecule, the TNF-α (pg/ml), LPS-treated U937-CD200R1 cells, log [Ab] (M) -8 [4] was 1040 pg/ml, the TNF-α (pg/ml), LPS-treated U937-CD200R1 cells, log [Ab] (M) -9 [4] was 1480 pg/ml and the TNF-α (pg/ml), LPS-treated U937-CD200R1 cells, log [Ab] (M) -10 [4] was 3760 pg/ml. The TNF-α (pg/ml), LPS-treated U937-CD200R1 cells, log [Ab] (M) -11 [4] was 4950 pg/ml and the TNF-α (pg/ml), LPS-treated U937-CD200R1 cells, log [Ab] (M) -12 [4] was 5490 pg/ml.

B1: 6C3 (antibody, V domains shown)
VH: QVQLQQPGAELVRPGASVKLSCKASAYTFTSYWMNWVKQRPEQGLEWIGRIDPYDSETHYNQKFKDKAILTVDKSSSTAYMQLSSLTSEDSAVYYCARVDGNHLFDYWGQGTTLTVSS
VL: DIKMTQSPSSMYASLGERVTITCKASQDINSYLSWFQQKPGKSPKTLIYRANRLVDGVPSRFSGSGSGQDYSLTISSLEYEDMGIYYCLQYDEFPYTFGGGTKLEIK
B1 gave an ELISA O.D. [5] greater than 1.5 O.D.

B2: 6A10 (antibody, V domains shown)
VH: QLQQSGAELVRSGASVKLSCTASGFNIKDYYLHWIKQRPEQGLEWIGWIDPENGDTEYAPKFQGKATMTADTSSNTAYLQLISLTSEDAAVYYCFAGGSYWGQGTSVTVSS
VL: DIVMTQSPSSLSVSAGEKVTMSCKSSQSLLNSGNQKNYLAWYQQKPGQPPKLLIYGASTRESGVPDRFTGSGSGTDFTLTISSVQAEDLAVYYCQNDHSYPYTFGGGTKLEIK
B2 was tested, and the ELISA O.D. [5] was greater than 1.5 O.D.

B3: 5E9 (antibody, V domains shown)
VH: QVQLQQSGAELARPGASVKLSCKASGYTFTSYWMQWVKQRPGQGLEWIGAIYPGDGDTRYTQKFKGKATLTADKSSSTAYMQLRSLASEDSAVFYCARGGVTTLVPYFFDYWGQGATLTVSS
VL: DVLMTQTPLSLPVSLGDQASISCRSSQSIVHSNGNTYLEWYLQKPGQSPKLLIYKVSNRFSGVPDRFSGSGSGTDFTLKISRVEAEDLGVYYCFQGSHVPPTFGGGTKLEIK
B3 gave an ELISA O.D. [5] greater than 1.5 O.D.

B4: 1F1 (antibody, V domains shown)
VH: QVQLQQPGAEFVKPGAPVKLSCKASGYTFTSYWMNWVKQRPGRGLEWIGRIDPADSEIHYNQKFKDKATLTVDKSSSTAYIQFSSLTSEDSAVYYCARSGGWLPGFAYWGQGTLVTVSA
VL: ENVLTQSPAIMSASPGEKVTMTCSASSSLIYMHWYQQKSSTSPKLWIYDTSKLASGVPGRFSGSGSGNSYSLTINSMEAEDVATYYCFQGSGYPLMYTFGGGTKLEIK
For B4, the ELISA O.D. [5] was greater than 1.5 O.D.

B5: 6A8 (antibody, V domains shown)
VH: QVQLQQPGAELVKPGAPVKLSCKASGYTFTSYWMNWVKQRPGRGLEWIGRIDPSDSETHYNQKFKDKATLTVDKSSSTAYIQLSSLTSEDSAVYYCARSGGWLPGFAYWGQGTLVTVSA
VL: ENVLTQSPAIMSASPGEKVTMTCSASSSLSYMLWYQQKSSTSPKLWIYDTSKLASGVPGRFSGSGSGNSYSLTISSMEAEDVGTYYCFQGSGNPLMYTFGGGTKLEIK
With B5 the ELISA O.D. [5] was greater than 1.5 O.D.

B6: 3G4 (antibody, V domains shown)
VH: QVQLQQPGAELVKPGAPVKLSCKASGFTLTSYWMNWVKQRPGRGLEWIGRIDPSDSETHYNQKFKDKATLTVDKSSSTAYIQLTSLTSEDSAVYYCARSGGWLPGFAYWGQGTLVTVSA
VL: ENVLTQSPAIMSASPGEKVTMTCSARSSVSYMHWYQQKSRTSPKLWIYDTSKLASGVPGRFSGSGSGNSYSLTISSMEAEDVATYYCFQGSGDPLMYTFGGGTKLEIK
B6 showed an ELISA O.D. [5] greater than 1.5 O.D.

B7: 1H10 (antibody, V domains shown)
VH: QVQLQQPGAELVKPGTSVKLSCKASGYNFTSYWINWVKLRPGQGLEWIGDINPGSGSTNYNEKFRSKATLTVGTSSSTAYMQLSSLASEDSALYYCAREDYYGSRFFYWGQGTLVTVSA
VL: DVVMTQTPLSLPVSLGDQASISCRSSQSLVHSNGNTYLHWYLQKPGQSPKLLIYKVSNRFSGVPDRFSGSGSGTDFTLKISRVEAEDLGVYFCSQSTHVTFGAGTKLELK
With B7 the ELISA O.D. [5] was greater than 1.5 O.D.

B8: P001015 (antibody, V domains shown)
VH: EVQLLESGGGLVQPGGSLRLSCAASGFTFSSYDMSWVRQVPGKGLEWVSWISHGGGSIYYADSVKGRFTISRDNSKNTLYLQMNSLRAEDTAVYYCARDAPAYSAPLFDYWGQGTLVTVSS
VL: QSVLTQPPSASGTPGQRVTISCSGSSSNIGNNAVNWYQQLPGTAPKLLIYYDSNRPSGVPDRFSGSKSGTSASLAISGLRSEDEADYYCAAWDDSLSGYVFGGGTKLTVL
B8: no binding (tested: up to 300 nM) [6].
